Data taken from publication PMC2133036 (The Journal of Cell Biology, 1998).
“And” between values parts separate entries of the source, which are not always exact repeats. Equal values may be shown once.

Biological target: T1, Vma22p (S. cerevisiae, UniProt P38784 1-181)
T1 sequence (looked up): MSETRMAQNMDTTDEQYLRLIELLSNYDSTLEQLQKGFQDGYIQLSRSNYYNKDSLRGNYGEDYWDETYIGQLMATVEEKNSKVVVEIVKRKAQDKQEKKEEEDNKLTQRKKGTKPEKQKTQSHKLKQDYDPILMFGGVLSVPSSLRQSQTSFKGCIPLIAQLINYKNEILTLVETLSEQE
Assay: cross-linking

half-life of the interaction in cells (pulse-chase, cross-linkable Vph1p): < 5 min and ~5 min
B1: Vph1p, the 100-kD integral membrane subunit of the V-ATPase (natural protein, S. cerevisiae, UniProt P32563 1-840, looked up)
chain: MAEKEEAIFRSAEMALVQFYIPQEISRDSAYTLGQLGLVQFRDLNSKVRAFQRTFVNEIRRLDNVERQYRYFYSLLKKHDIKLYEGDTDKYLDGSGELYVPPSGSVIDDYVRNASYLEERLIQMEDATDQIEVQKNDLEQYRFILQSGDEFFLKGDNTDSTSYMDEDMIDANGENIAAAIGASVNYVTGVIARDKVATLEQILWRVLRGNLFFKTVEIEQPVYDVKTREYKHKNAFIVFSHGDLIIKRIRKIAESLDANLYDVDSSNEGRSQQLAKVNKNLSDLYTVLKTTSTTLESELYAIAKELDSWFQDVTREKAIFEILNKSNYDTNRKILIAEGWIPRDELATLQARLGEMIARLGIDVPSIIQVLDTNHTPPTFHRTNKFTAGFQSICDCYGIAQYREINAGLPTIVTFPFMFAIMFGDMGHGFLMTLAALSLVLNEKKINKMKRGEIFDMAFTGRYIILLMGVFSMYTGFLYNDIFSKTMTIFKSGWKWPDHWKKGESITATSVGTYPIGLDWAWHGTENALLFSNSYKMKLSILMGFIHMTYSYFFSLANHLYFNSMIDIIGNFIPGLLFMQGIFGYLSVCIVYKWAVDWVKDGKPAPGLLNMLINMFLSPGTIDDELYPHQAKVQVFLLLMALVCIPWLLLVKPLHFKFTHKKKSHEPLPSTEADASSEDLEAQQLISAMDADDAEEEEVGSGSHGEDFGDIMIHQVIHTIEFCLNCVSHTASYLRLWALSLAHAQLSSVLWTMTIQIAFGFRGFVGVFMTVALFAMWFALTCAVLVLMEGTSAMLHSLRLHWVESMSKFFVGEGLPYEPFAFEYKDMEVAVASASSSASS
